Test results as given in patent US20210403586A1, “MUTANT OF RANKL AND PHARMACEUTICAL COMPOSITION COMPRISING SAME FOR PREVENTING OR TREATING OSTEOPOROSIS” (INDUSTRY-ACADEMIC COOPERATION FOUNDATION CHOSUN UNIVERSITY, priority 2018, published 2021).
Entries after “also recorded” stand apart in the source; their conditions may differ.

What was measured:
[1] = tested on: bone marrow-derived monocytes (BMMs); test: TRAP analysis of osteoclastogenesis induced by RANKL variants in BMMs; assay type: cell-based, mouse; conditions: RANKL-treated primary BMM; listed as mtRANKL
Experimental: The RANKL-RANK binding sites are K180, D189, R190, H223, H224, which are conserved between humans and mice. We selected 4 mutant RANKLs to be purified. Their size corresponded to the wild type RANKL (39 kDa) (FIG. 2B). Tartrate-resistant acid […] (TRAP) activity was absent for all RANKLs even at 150 ng/mL (FIG. 2C, D).
(§1) 4-week old male BALB/c mice were purchased from Orient Bio (Gwangju, Korea) and kept in an animal facility approved by the Chosun University Animal Management Committee (IACUC2017-A0002). After obtaining bone marrow cells from mice, bone marrow mononuclear cells were seeded into 96-well plates (1 Y 10^4 cells/well), and in the absence or presence of various concentrations of compounds, incubated with M-CSF (100 ng/mL) overnight before stimulation with RANKL (50 ng/well). The medium was replaced every other days. 6 days later, the cells were fixed with 4% paraformaldehyde, permeated in 0.1% Triton X-100, and washed with PBS. Then, TRAP activity (Sigma-Aldrich, St. Louis, Mo., USA) staining was performed. TRAP-positive multinuclear cells containing 5 or more nuclei were counted as osteoclasts.
To evaluate the effect of mtRANKL on osteoclastogenesis, TRAP analysis was performed on RANKL-treated primary bone marrow-derived macrophages (BMM) by the method described in Reference Example 2, and the results are shown in FIGS. 4B and 4C.

[2] = tested on: bone marrow-derived monocytes (BMMs); test: Inhibition of wild type RANKL-induced TRAP activity by mutant RANKL in BMMs; assay type: cell-based, mouse; conditions: BMMs treated with mutant and wild type RANKL; even at a 3:1 wild type:mutant ratio
Experimental: To investigate the optimized inhibitory effect against wild type RANKL, bone marrow-derived monocytes (BMMs) were treated with purified mutant and wild type RANKL (FIG. 2E, F). […] Therefore, we used mRANKL-MT3 for subsequent experiments.
as §1

[3] = tested on: ovariectomized (OVX) mice; test: mtRANKL immunization in ovariectomized (OVX) mice, micro-CT; assay type: in vivo, mouse; conditions: mice ovariectomized after immunization with mtRANKL vs OVX mice
Experimental: […] As for the X-ray source, the field of view was set to 45 mm, 90 kV and […] (voxel size, 90 μm; scanning time, 14 minutes). CT imaging was performed using a Quantum GX 3D Viewer software. After scanning, image segmentation was performed in Analyze (AnalyzeDirect, Overland Park, Kans., USA). Briefly, the legs were segmented using semi-automatic and manual tools (e.g., object extractor, area expansion, and object separator) using volume editing tools. Then, a 3D rendering of the leg was created, and bone mineral density (BMD), bone volume (BV), bone volume percentage (%), and trabecular thickness were calculated using the ROI tools.
17-week-old […] BALB/c mice were equally divided into a group that was given OVX after immunization with mtRANKL, a group that was given only OVX, and a non-treated negative control group.
The mtRANKL-immunized group was immunized with mtRANKL a total of three times: started with 1st immunization at 52 days, 2nd immunization at 39 days, 3rd immunization at 14 days each before OVX. mtRANKL used in the immunization was injected after mixing with an aluminum hydroxide adjuvant. The amount of mtRANKL was 0.2 mg per mouse.
52 days after 1st immunization, OVX was performed. On day 70 after OVX, serum were collected and tibias were extracted, and then the adhesive soft tissues of tibias were removed. […]

BMMs [4] = test: Real-time PCR of osteoclastogenesis mRNA in RANKL-induced BMMs; assay type: cell-based, mouse; conditions: mRANKL-MT3-induced BMMs compared with mRANKL-WT induced BMMs
Experimental: Meanwhile, for Real-time PCR, BMM cells were incubated with 30 ng/mL M-CSF and 75 ng/mL sRANKL (R&D Systems) or isolated RANKL in 6-well plates. Total RNA was extracted using TRIzol reagent (Invitrogen, Thermo Fisher Scientific, Inc.). The cDNA was synthesized from 2 μg total RNA using ReverTra Ace qPCR RT Master Mix (TOYOBO, Osaka, Japan). Real-time PCR was conducted on a CFX Connect RealTime PCR Detection System (Bio-Rad, Hercules, Calif., USA) in a reaction mixture (total volume, 20 μL) containing IQ SYBR Green Supermix (Bio-Rad), 10 pmol forward primer, 10 pmol reverse primer, and 1 μg cDNA.

BMMs [5] = test: Bone-resorption assay (Osteo Assay Surface plates); assay type: cell-based, mouse; conditions: 6 days, mRANKL-MT3 150 ng/mL
Experimental: We used bone-resorption and F-actin ring formation assays to investigate osteoclast activity. To observe bone resorption in vitro, BMMs were cultured in Corning Osteo Assay Surface 96-well Multiple Well Plates (Sigma) with 30 ng/mL M-CSF and 75 ng/mL sRANKL (soluble RANKL; R&D Systems) or isolated RANKL for 6 days. Then, the plates were washed with pure water. To monitor actin ring formation, BMMs were grown on glass slides. After culture, the cells were fixed with 4% formalin, permeabilized with 0.5% Triton X100 in PBS for 5 min at room temperature, and incubated with 0.5 mg/mL TRITC-labelled phalloidin for 30 min. The cells were then rinsed with PBS. F-actin rings were visualized using a fluorescence ECLIPSE Ts2R microscope (Nikon, Tokyo, Japan).

RANKL = test: ELISA of serum RANKL levels; assay type: in vivo, mouse; conditions: wtRANKL 2.0 mg/kg s.c. to non-immunized mice, or to mice immunized with mtRANKL
Experimental: A commercially available enzyme immunoassay kit (R & D Systems, Minn., USA) was used to measure RANKL levels in the serum of mice according to the manufacturer's protocol. Absorbance (450 nm) was measured in a colorimetric microplate reader (BioTek, Winooski, USA). The reading of the absorbance was then subtracted from the reading at 570 nm.
17-week-old […] BALB/c mice were equally divided into 3 groups. The group was divided into a negative control group in which PBS was intraperitoneally injected, a group in which only wtRANKL was injected, and a group in which wtRANKL was injected after immunization with mtRANKL for 52 days. mtRANKL was injected after mixing with an aluminum hydroxide adjuvant. The immunization process started with 1st immunization of mtRANKL at 52 days, 2nd immunization at 39 days, 3rd immunization at 14 days each before injection of wtRANKL, and a total of 3 immunizations was performed. The amount of mtRANKL was 0.2 mg per mouse.
After 52 days, PBS was injected into the negative control group and wtRANKL was injected into the other two groups. Next day, wtRANKL was injected once more. wtRANK was subcutaneously injected (2.0 mg/kg). Serum was collected to determine the titer of anti-RANKL antibody. Then, after extracting tibias, the adhesive soft tissues of tibias were removed.

B1: mRANKL-MT3: mouse RANKL mutant: K180R, D189I, R190K, H223F, H224Y; nucleic acid SEQ ID NO: 3 (protein, UniProt O35235 158-316, looked up, variant K180R D189I R190K H223F H224Y)
chain: KPEAQPFAHLTINAASIPSGSHRVTLSSWYHIKGWAKISNMTLSNGKLRVNQDGFYYLYANICFRFYETSGSVPTDYLQLMVYVVKTSIKIPSSHNLMKGGSTKNWSGNSEFHFYSINVGGFFKLRAGEEISIQVSNPSLLDPDQDATYFGAFKVQDID
- number of TRAP-positive multinuclear osteoclasts / osteoclast differentiation [1]: did not induce osteoclast differentiation; also recorded: led to a reduction of TRAP-positive cells
- inhibitory effect against wild type RANKL (TRAP activity) [2]: the most effective at inhibiting TRAP activity
- BMD of tibias [3]: significantly higher
- trabecular bones of proximal tibias (micro-CT) ([3]; day 70 after OVX): thicker fibers and higher density than those of OVX mice
- TRAP, NFATc1, and OSCAR mRNA expression (BMMs [4]): down-regulated
- resorption pits (BMMs [5]): no resorption pits
- level of RANKL in the blood (ELISA) (RANKL): eliminated
